{"source": "paper PMC11952319", "assay_in_all_cases": "BLI", "key": {"[1]": {"target": "M15 single reverted mutant S32I (light chain residue 32 reverted to the germline residue) (human)"}, "[2]": {"target": "M15 triple mutant with all three light chain mutations (S32I, G51A, T57I) reverted to germline (human)"}, "[3]": {"target": "M15 single reverted mutant T57I (light chain residue 57 reverted to the germline residue) (human)"}, "[4]": {"target": "M15 single reverted mutant G51A (light chain residue 51 reverted to the germline residue) (human)"}}, "data": [{"substance": "SARS-CoV-2 WA1/2020 S2 protein (stabilized prefusion SARS-CoV-2 spike S2 trimer) (from UniProt P0DTC2) (domain or fragment)", "values": [{"measurement": "fold decrease in binding affinity compared to M15", "setting": "[1]", "result": 1.45, "unit": "fold"}, {"measurement": "fold decrease in binding affinity compared to M15", "setting": "[2]", "result": 12, "unit": "fold"}, {"measurement": "fold decrease in binding affinity compared to M15", "setting": "[3]", "result": 1.02, "unit": "fold"}, {"measurement": "fold decrease in binding affinity compared to M15", "setting": "[4]", "result": 1.88, "unit": "fold"}]}]}
